Assay results as given in patent publication US20240352438A1, “MEANS AND METHODS FOR DETOXIFYING OCHRATOXIN A” (DSM Austria GmbH, priority 2021, published 2024).

What was measured:
[1] = Feeding trial in pigs: OTA concentration in plasma and urine; assay type: in vivo; settings: for % OTA reduction, plasma samples / % OTA reduction, urine samples: day 14
Procedure: To further study an application of the enzymes referred to herein as additives e.g. for feed or food, feeding trials were conducted in pigs. Exemplarily, either of the enzymes having either the amino acid sequence of SEQ ID NO: 1 or 2 were produced by cultivation of E. coli transformants in bioreactors by applying methods known to a person having skill in the art. The cell broth was homogenized and centrifuged. The supernatant was concentrated, dried by lyophilization and formulated as a powder by grinding. The enzymatic activity of the thus obtained lyophilized powder was determined, and the powder was mixed with feed for the feeding trial as described in the following.
Thirteen piglet groups were studied based on the following experimental diet setups: 1) Base feed; 2) base feed+50 ppb OTA; 3) base feed+50 ppb OTA+2.62 U of the enzyme of SEQ ID NO: 1 per kg of feed; 4) base feed+50 ppb OTA+0.29 U of the enzyme of SEQ ID NO: 2 per kg of feed; 5) base feed+500 ppb OTA; 6) base feed+500 ppb OTA+2.62 U of the enzyme of SEQ ID NO: 1 per kg of feed; 7) 500 ppb OTA+0.29 U of the enzyme of SEQ ID NO: 2 per kg of feed.
Each trial group consisted of four piglets weighing approximately 7-8 kg, who were coming out from weaning and adapted to solid diet before being fed the experimental diet as described above. The duration of the feeding trial (i.e. actual days of feeding the experimental diet) was fourteen days. Collectively each trial group consumed around 15 kg of feed. No piglets fell sick to any unexpected disease throughout the feeding trial. Urine and blood samples were collected on day 0, just before starting the experimental diet, and on day 14.
Extraction of OTA was performed from plasma and urine samples for subsequent analysis by HPLC-MS. 200 μL of sample was thoroughly mixed with 800 μL of extraction solution (containing 99% of ethyl acetate and 1% of phosphoric acid, 85%) followed by centrifugation at 19000×g for 5 min for phase separation. 50 μL of upper phase was diluted with 50 μL of acetonitrile, followed by HPLC-MS analysis. The HPLC-MS method as described by Dellafiora et al. (2020, Toxins 12, 258) was used to determine the changes in OTA concentration in the samples taken during the trial upon consumption of the experimental diets. The results are shown in Table 18 using the diet setup numbering as indicated above.

[2] = Pelleting trial: degradation of spiked OTA to OTalpha in mash feed and resuspended pellets; settings: for OTalpha %: formed OTalpha; for OTA %: remaining OTA
Procedure: To verify the suitability of the enzymes referred to herein as additives e.g. for feed or food, pelleting trials were conducted. As an example, 1.15 U or 0.06 U of either of the enzymes having either the amino acid sequence of SEQ ID NO: 1 or 2 was homogeneously mixed with one kg of mash feed and subjected to standard feed pelleting process where the temperature of the conditioner was set to either 75, 80, 85, 90 or 95° C. in five separate batches of feed pelleting. The effect of pelleting process on the stability of enzyme was estimated by calculation of percentage degradation of spiked OTA to OTalpha in resuspended pellets. Untreated mash was analyzed applying the following protocol: 50 μL of 10 ppm OTA were spiked to g of dry sample, directly before starting the assay by adding 4.95 mL RO-water (37° C.). The suspension was incubated in 50 mL tubes in an overhead shaker at 37° C. for 60 min. The reaction was stopped by adding 1 mL 6 M phosphoric acid followed by another incubation in a rotary shaker at room temperature for 10 min. Subsequently 30 μL of ^13C-labeled OTA/^13C-labeled OTalpha (each 1 ppm) internal standard were added to each sample and mixed. 30 mL ethyl acetate were added followed by shaking for 60 min at 80 rpm on an overhead shaker. After centrifugation (10 min, 3214 rcf), 8 mL of the organic upper phase were transferred to a new 50 mL tube. 4 mL of 0.1 M NaHCO3 (pH 8.2) were added. After shaking for 1 min at 80 rpm on an overhead shaker, sample was centrifuged again (10 min, 3214 rcf) and 3 mL of the aqueous lower phase transferred to a new 15 mL tube. 70 μL 85% phosphoric acid and 1.5 mL ethyl acetate were added and shaken for 1 min at 80 rpm at an overhead shaker. After centrifugation (10 min, 3214 rcf) 50 μL organic upper phase were added to 50 μL acetonitrile in a silanized HPLC vial and thoroughly mixed. OTA and OTalpha content was determined by HPLC MS/MS method as described by Dellafiora et al. (2020, Toxins 12, 258) to determine the percentage of OTA degradation to form OTalpha.

[3] = 500 ppb OTA+enzyme (2.62 U SEQ ID NO: 1 or 0.29 U SEQ ID NO: 2 per kg of feed)
[4] = base feed+50 ppb OTA+enzyme (2.62 U SEQ ID NO: 1 or 0.29 U SEQ ID NO: 2 per kg of feed)
[5] = mash before pelleting, 1.15 U or 0.06 U enzyme per kg mash feed, 37° C., 60 min

B1: SEQ ID NO: 1: mature species of exemplary OTA-hydrolyzing polypeptide 1, amidohydrolase family; lacks N-terminal amino acids 1-24 of SEQ ID NO: 318 (protein)
chain: APAAPHTVVLRAARMFDGASGKLVDHPQLTIVGNKIVRIAQGDKAEVPAGAEVVDLGDATLLPGFIDAHVHLSGQSSDNWYGDFFDNMMRFPAEQALYGAYYARITLEAGFTSVRDVGSTDWVALGLRNAIDAGKVPGPRMLVSNYAVGSTGGHADQDPIPPHKLPLAGPLQGVCNGPEECRAAVRYQIKYGANVIKFMPSGGVLSLSDPVDAPELSQDEMNAVIGESHAWGRKVAAHAHGDKAAKMAVAAGVDSIEHGSFIEDDTLRAMKAKNVYLVPTISAIAHVEEKIGTFPPVIAEKGRAAAAHLRQTFRHAVQIGVPIALGTDAGVGAHGSNAREFRYMVENGLTPAQALLAGTANAARLLGTFDRVGTLEAGKLADVVAVPGNPIADITVTERPLFVMKDGVVVRRDAVR
modifications: polypeptide 1
OTA concentration in plasma samples, Day 14 [1, 3]: 168 ± 41 ppb
OTA concentration in urine samples, Day 14 [1, 3]: 7 ± 1 ppb
% OTA reduction, plasma samples [1, 3]: 59%
% OTA reduction, urine samples [1, 3]: 65%
OTA concentration in plasma samples, Day 14 [1, 4]: 19 ± 2 ppb
OTA concentration in urine samples, Day 14 [1, 4]: 0 ppb
% OTA reduction, plasma samples [1, 4]: 54%
% OTA reduction, urine samples [1, 4]: 100%
OTalpha % ([2]; after pelleting at 75° C.): 99%
OTalpha % ([2]; after pelleting at 80° C.): 99%
OTalpha % ([2]; after pelleting at 85° C.): 99%
OTalpha % ([2]; after pelleting at 90° C.): 99%
OTalpha % ([2]; after pelleting at 95° C.): 99%
OTalpha % [2, 5]: 99%
OTA % ([2]; after pelleting at 75° C.): 1%
OTA % ([2]; after pelleting at 80° C.): 1%
OTA % ([2]; after pelleting at 85° C.): 1%
OTA % ([2]; after pelleting at 90° C.): 1%
OTA % ([2]; after pelleting at 95° C.): 1%
OTA % [2, 5]: 1%

B2: SEQ ID NO: 2: exemplary OTA-hydrolyzing polypeptide 2 belonging to the amidohydrolase protein family (protein)
chain: MYSLAIRNGIVFDGEKFIGKTNIYVDGDKIVKITNERLDAKEEVNAEGYFVMPGLIDAHLHLTGIRGGSLLMGYLLDDPRTRLLRAANWARELLMAGFTTVRDCGEPNSIILRNAINEGIIPGPRIIAAGSPITQTFGHAELSHSLPLEWSIQLGFGEICDGVDECIKAARKVLRSGADFIKIMATGGVLSERDRPEWPQLTPEEMSAIVREAEKVGTYVAAHAHGDKGARIAVEAGVRTIEHGSLITEETVKLMAEKGVSLTPTLSIQELIYKYGKQMGIDPWGLEKIGQVREGVINSIKLARKYGVMILAGTDLGFKTGLDIDMGKNWVEVKLLVELGGLSSEEALRAATGNASKMLRLNTGIIREGYLADIVLINGNPLENINDIARVSTVIKGGKVTVENGKLI
modifications: polypeptide 2
notes: exemplary OTA-hydrolyzing polypeptide 2 belonging to the amidohydrolase protein family
OTA concentration in plasma samples, Day 14 [1, 3]: 107 ± 31 ppb
OTA concentration in urine samples, Day 14 [1, 3]: 4 ppb
% OTA reduction, plasma samples [1, 3]: 74%
% OTA reduction, urine samples [1, 3]: 80%
OTA concentration in plasma samples, Day 14 [1, 4]: 11 ± 3 ppb
OTA concentration in urine samples, Day 14 [1, 4]: 0 ppb
% OTA reduction, plasma samples [1, 4]: 73%
% OTA reduction, urine samples [1, 4]: 100%
OTalpha % ([2]; after pelleting at 75° C.): 84%
OTalpha % ([2]; after pelleting at 80° C.): 88%
OTalpha % ([2]; after pelleting at 85° C.): 84%
OTalpha % ([2]; after pelleting at 90° C.): 88%
OTalpha % ([2]; after pelleting at 95° C.): 87%
OTalpha % [2, 5]: 80%
OTA % ([2]; after pelleting at 75° C.): 16%
OTA % ([2]; after pelleting at 80° C.): 12%
OTA % ([2]; after pelleting at 85° C.): 16%
OTA % ([2]; after pelleting at 90° C.): 12%
OTA % ([2]; after pelleting at 95° C.): 13%
OTA % [2, 5]: 20%
